± gives the uncertainty stated by the source.

These results are taken from the Human Domainome abundance scans (Beltran et al. 2025).

B1: SH3 and PX domain-containing protein 2B, residues 155 to 209; numbered along this chain, A1X283 (parent)
chain: EQYVVVANYQKQESSEISLSVGQVVDIIEKNESGWWFVSTAEEQGWVPATCLEGQ

The data set covers variants of B1. The data set can be described thus: abundance fitness (aPCA) (normalised: wild type 0, dead -1); higher = more abundant; growth selection in yeast, the domain comes from the species named. The conditions noted are these: Homo sapiens.
EQYVVVANYQKQESSEISLSVGQVVDIIEKNESGWWFVSTAEEQGWVPATCLCGQ [E53C]: the abundance fitness is -0.14 ± 0.12. Next, EQYVVVANYQKQESSEISLSVGQVVDIIEKNESGWWFVSTAEEQGWVPATCLMGQ [E53M]: -0.144 ± 0.1; EQYVVVANYQKQESSEISLSVGQVVDIIEKNESGWWFVSTAEEQGWVPATCLQGQ [E53Q]: 0.027 ± 0.12. With EQYVVVANYQKQESSEISLSVGQVVDIIEKNESGWWFVSTAEEQGWVPATCLWGQ [E53W], the abundance fitness is -0.477 ± 0.097.

As to EQYVVVANYQKQESSEISLSVGQVVDIIEKNESGWWFVSTAEEQGWVPATCLGGQ [E53G], the abundance fitness is -0.008 ± 0.083. Next, EQYVVVANYQKQESSEISLSVGQVVDIIEKNESGWWFVSTAEEQGWVPATCLVGQ [E53V]: -0.128 ± 0.1. Take EQYVVVANYQKQESSEISLSVGQVVDIIEKNESGWWFVSTAEEQGWVPATCLLGQ [E53L]: the abundance fitness was -0.2 ± 0.077. In the case of EQYVVVANYQKQESSEISLSVGQVVDIIEKNESGWWFVSTAEEQGWVPATCLYGQ [E53Y] it was -0.252 ± 0.15. Next, EQYVVVANYQKQESSEISLSVGQVVDIIEKNESGWWFVSTAEEQGWVPATCLAGQ [E53A]: -0.014 ± 0.07; EQYVVVANYQKQESSEISLSVGQVVDIIEKNESGWWFVSTAEEQGWVPATCLTGQ [E53T]: -0.018 ± 0.095; EQYVVVANYQKQESSEISLSVGQVVDIIEKNESGWWFVSTAEEQGWVPATCLRGQ [E53R]: -0.064 ± 0.08. Next, EQYVVVANYQKQESSEISLSVGQVVDIIEKNESGWWFVSTAEEQGWVPATCLIGQ [E53I]: -0.289 ± 0.15. On to EQYVVVANYQKQESSEISLSVGQVVDIIEKNESGWWFVSTAEEQGWVPATCLDGQ [E53D], for which the abundance fitness was -0.073 ± 0.12. In the case of EQYVVVANYQKQESSEISLSVGQVVDIIEKNESGWWFVSTAEEQGWVPATCLHGQ [E53H] it was -0.138 ± 0.13.

EQYVVVANYQKQESSEISLSVGQVVDIIEKNESGWWFVSTAEEQGWVPATCLSGQ [E53S]: the abundance fitness was -0.05 ± 0.083. With EQYVVVANYQKQESSEISLSVGQVVDIIEKNESGWWFVSTAEEQGWVPATCLKGQ [E53K], the abundance fitness was -0.004 ± 0.13.

As to EQYVVVANYQKQESSEISLSVGQVVDIIEKNESGWWFVSTAEEQGWVPATCLFGQ [E53F], the abundance fitness was -0.33 ± 0.14. In the case of EQYVVVANYQKQESSEISLSVGQVVDIIEKNESGWWFVSTAEEQGWVYATCLEGQ [P48Y], the abundance fitness was -1.03 ± 0.32. In the case of EQYVVVANYQKQESSEISLSVGQVVDIIEKNESGWWFVSTAEEQGWVPATCWEGQ [L52W] it was -0.775 ± 0.16; in that of EQYVVVANYQKQESSEISLSVGQVVDIIEKNESGWWFVSTAEEQGWVPATCMEGQ [L52M], -0.168 ± 0.1. On to EQYVVVANYQKQESSEISLSVGQVVDIIEKNESGWWFVSTAEEQGWVPATCKEGQ [L52K], for which the abundance fitness is -0.647 ± 0.19. With EQYVVVANYQKQESSEISLSVGQVVDIIEKNESGWWFVSTAEEQGWVPATCFEGQ [L52F], the abundance fitness is -0.083 ± 0.093. With EQYVVVANYQKQESSEISLSVGQVVDIIEKNESGWWFVSTAEEQGWVPATCHEGQ [L52H], the abundance fitness is -0.773 ± 0.43.

With EQYVVVANYQKQESSEISLSVGQVVDIIEKNESGWWFVSTAEEQGWVPATCYEGQ [L52Y], the abundance fitness was -1.07 ± 0.25. Regarding EQYVVVANYQKQESSEISLSVGQVVDIIEKNESGWWFVSTAEEQGWVPATCTEGQ [L52T], the abundance fitness is -1.22 ± 0.29. Consider EQYVVVANYQKQESSEISLSVGQVVDIIEKNESGWWFVSTAEEQGWVPATCNEGQ [L52N], for which the abundance fitness was -1.05 ± 0.23. Next, EQYVVVANYQKQESSEISLSVGQVVDIIEKNESGWWFVSTAEEQGWVPATCREGQ [L52R]: -0.835 ± 0.12; EQYVVVANYQKQESSEISLSVGQVVDIIEKNESGWWFVSTAEEQGWVPATCQEGQ [L52Q]: -1.05 ± 0.26; EQYVVVANYQKQESSEISLSVGQVVDIIEKNESGWWFVSTAEEQGWVPATCCEGQ [L52C]: -0.227 ± 0.18. Consider EQYVVVANYQKQESSEISLSVGQVVDIIEKNESGWWFVSTAEEQGWVPATCVEGQ [L52V], for which the abundance fitness was -0.049 ± 0.067. Next, EQYVVVANYQKQESSEISLSVGQVVDIIEKNESGWWFVSTAEEQGWVPATCEEGQ [L52E]: -1.1 ± 0.19; EQYVVVANYQKQESSEISLSVGQVVDIIEKNESGWWFVSTAEEQGWVPATCDEGQ [L52D]: -0.942 ± 0.17. In the case of EQYVVVANYQKQESSEISLSVGQVVDIIEKNESGWWFVSTAEEQGWVPATCPEGQ [L52P] it was -0.826 ± 0.24; in that of EQYVVVANYQKQESSEISLSVGQVVDIIEKNESGWWFVSTAEEQGWVPATCLEHQ [G54H], -0.345 ± 0.2.

Regarding EQYVVVANYQKQESSEISLSVGQVVDIIEKNESGWWFVSTAEEQGWVPATCLEIQ [G54I], the abundance fitness stood at 0.079 ± 0.089. In the case of EQYVVVANYQKQESSEISLSVGQVVDIIEKNESGWWFVSTAEEQGWVPATCLEDQ [G54D] it was -0.144 ± 0.1. With EQYVVVANYQKQESSEISLSVGQVVDIIEKNESGWWFVSTAEEQGWVPATCLEPQ [G54P], the abundance fitness is -0.112 ± 0.25. For EQYVVVANYQKQESSEISLSVGQVVDIIEKNESGWWFVSTAEEQGWVPATCLEMQ [G54M], the abundance fitness is -0.098 ± 0.22. Next, EQYVVVANYQKQESSEISLSVGQVVDIIEKNESGWWFVSTAEEQGWVPATCLECQ [G54C]: -0.04 ± 0.12; EQYVVVANYQKQESSEISLSVGQVVDIIEKNESGWWFVSTAEEQGWVPATCLEFQ [G54F]: -0.143 ± 0.12; EQYVVVANYQKQESSEISLSVGQVVDIIEKNESGWWFVSTAEEQGWVPATCLEKQ [G54K]: -0.231 ± 0.19. For the variant EQYVVVANYQKQESSEISLSVGQVVDIIEKNESGWWFVSTAEEQGWVPATCLEAQ [G54A], the abundance fitness turned out to be 0 ± 0.1.

With EQYVVVANYQKQESSEISLSVGQVVDIIEKNESGWWFVSTAEEQGWVPATCLEEQ [G54E], the abundance fitness was determined as 0.11 ± 0.13. EQYVVVANYQKQESSEISLSVGQVVDIIEKNESGWWFVSTAEEQGWVPATCLELQ [G54L]: the abundance fitness was determined as 0.07 ± 0.089.

For EQYVVVANYQKQESSEISLSVGQVVDIIEKNESGWWFVSTAEEQGWVPATCLENQ [G54N], the abundance fitness was determined as 0.025 ± 0.12. In the case of EQYVVVANYQKQESSEISLSVGQVVDIIEKNESGWWFVSTAEEQGWVPATVLEGQ [C51V] it was -0.107 ± 0.071. As for EQYVVVANYQKQESSEISLSVGQVVDIIEKNESGWWFVSTAEEQGWVPATPLEGQ [C51P], the abundance fitness was -0.959 ± 0.22. In the case of EQYVVVANYQKQESSEISLSVGQVVDIIEKNESGWWFVSTAEEQGWVPATKLEGQ [C51K] it was -0.245 ± 0.14.
